Data taken from a protein production outcome set (Wang et al. 2014).

Assay: label from the status in PepcDB records

Sequence	protein production
MKKTLILILCLFLCTVSFARKRVKVACVGNSITYGIGVSDPDKESYPARLQQMLGEGYTVERFGKPGATLLNKGHRPFMQQKEFKDALAFAGDVVVIHLGVNDTDPRDWPNYRDFFIADYRALIDSFRVANPECRILIARLTPIADRHPRFESGTRDWHDEIQLAIETIAKYAQVQLIDFHAPLYPYPFMLPDAVHPDKEGAAVLAKTVYEGITGDFGGLQMPEIYTDNMVLQHGRLLTIQGKADAGEKVTVSIDRQKLQAVTGADGKWAVDVRPLKAGGPYTLTVSTEKRKLVYENVLAGEVWLCSGQSNMEFYLNWSATAAQDVPQAANSNIRFYDMKARWRTDAVEWDASVLDSLNHLQYYKDTRWTVCSPETAGNFSAVAYYFGKKLQDSLQVPVGLICNAIGGSPTEAWIDRSTLEYRFPAILRNWMQNDFIQDWVRGRAALNVKQSSNKLQRHPYEPCYLYESGIRPLEQFPVKGFIWYQGESNAHNREAHEKLFGLLVESWRKNWGDAELPFYFVQLSSIDRPSWTWFRDSQRRLMAEIPHTGMAVSSDRGDSLDVHPKQKREVGERLAAWALNKTYGYKNVIPSGPLYKSVVFSGGAAYISFDYAEELSTSDGKSLRTFEVAGDDGLFYPAQAVVENGKIKVWSDKVKEPETVRYGWQPFTRANLVNGAGLPASTFRAE	failed
MTFPPPDPAVAPPAEPASRAPHGRPATSGQSASATTVGSGAPLPASSALASTPSQAGPTGRKRPGQSTVTARTGAPNLPDPLGDNVVGERAVVPPIQQGKSRTALTNELNAEPVAGTVPAAPGGDLFIDAVLAQSYRHFFGPTSQPAVPPRQQVISITRLMEKLAYLKPADQALVREAFQFSDEAHLGQYRQSGEPYITHPVAVAELCADWKLDVQSIMAALLHDVMEDQGITKSELAEKFGPKVSELVDGLTKLDKLEFQSREQAQAESFRKMLLAMARDVRVILVKLADRTHNMRTLDFVPPEKRRRIALETMEIYAPIAHRLGLNTIYRELQELSFKVGSPFRYATLEKAVKAARGNRREVVKRILEAAQSALAGAGIVAELSGREKTLYSIYRKMHDKQLSFSQVLDVYGFRVVVETQMHCYMAMGALHGLYKPMPGKFKDYIAIPKINGYQSLHTTLVGPFGTPVEFQIRTRGMHQIAEAGVAAHWMYKHQADHANDIQQQAHQWLQSLLDIQSQTGDSQEFLEHVKIDLFPDAVYVFTPKGHIRALPRGATALDFAYAVHSDLGNQCVAVKINNELLPLRTELKSGDIVEVVTAPYSKPNPSWLAFVRTGKARAAIRHYLKTTKLDEAIQLGERLLEQSTRQLGIELKAVPQSVWDRMIQWTGNKLKEDIFADLALGRRVPAVVARRMEILLQELSGDVDSALLAAVQTFAGEDAPAVPITGDEGMSMIFSACCRPIPGDSIVGYLGKGEGLQIHVQDCKVAKRLHSKDPEHWIEVMWAKKTTRAFDVSIKIMVRNVKGIVARVAADLTSADANVAHVAMEPQQGGHQEATYMQFVIQVQNRLHLANVMRALRRNPDVIRIFRDRNDG	failed
MSLSNHSSDIEVGHSMNLTNHFLVAMPSMKDPYFKRSVIYICEHNQDGAMGLMINAPIDITVGGMLKQVDIEPAYPQSHQENLKKPVFNGGPVSEDRGFILHRPRDHYESSMKMTDDIAVTTSKDILTVLGTEAEPEGYIVALGYSGWSAGQLEVELTENSWLTIEADPELIFNTPVHEKWQKAIQKLGISPAQLSSDAGHEGGSHHHHHH	not failed
MTNAMELYQMLPKTNCKKCGKTSCMAFAVALMARELTPEDCPPLKEEPKYKESYEKLSEIFKPSEGATETGLIVHEDLCFGCGNCVVACPPNVANDPYGVGSGKAPTNPGRLVLTVEDGVVKAQNLGECRRFGKNKILCNGCIVTCPVEAIEFV	failed
MASFQQYKTKTGYKWLFKMGVGIDPKTGNRKTTTRRGFKTKKEAVAAAAEFQKEIDNNALARNDITFEDVFKEWWDVHSKTIKRSTRYRKLSNFKKHILPHFGKLKIKDITRAYCQKVINLIAQDIDSVQNVKIQANLVFKYALRMEYITKNPMEFVVIPKKEENFLSQEEEKRNFWEKDEIKTFLEKAHSQLAPQDYVMFYVLIFTGMRKGELIALEWKDVDLKEKTINIKQTMFFENGKEVIQTTKKYHSKRIITIDDQTAQILKKWRTQQKEMLLSNGITSEAKYVLIRGDMRPLRLAYPNDLLNRMITKNKLHRITIHGFRHSHASILFEAGASIKEVQARLGHKEIQTTMNIYTHVTKTAKAKTAETFKKYMEL	failed
MTNQHRASFPSPTRGEGRTRTALATLFLSILFLILPALAARAMDIQQVTSPKGITAWLVEDYSVPIVAVRFVFGGGSTQDPVGKEGLTNLMTGLFDEGAGPLDSEAFQVRLDDAGAEMSFEETRDGVYGSMRMLAEQRDEAFDLLRLAVNEPRFDQAPIDRIRAQILSGIIANENDPDTVAQHRWARAVYGDHPYSRSDQGTRQSIAAITKDDLKALHKAVFARGGLHVAVVGAIDAETLKKKLDMVFGDLPQNQALTPVADVEPKLAQRVEVNYDLPQTSLQLAWPGVKRKSADFFPAVLMNEILGGGTFTSRLFAEVREKRGLAYSVNSSLVNQDHADALIVTTGTRSDRAAETLGIVRDVARQLAEEGPTEAELAATKKYLIGAYAITNLDSSSSIAATLVELQLDDLGIDYMQRRAGYINAVTLDQVKAAAKKLLTAEPTIMVVGPPLAGAGKG	failed
MTIPLIIGGVLLAILILLILVFITKYRTVGPDEALIVTGNWLGGGKNVVTTDDGKKIKIIRGGGTFVVPIMQRAEPLSLLNYKLEVGTRDTYTKQGVPVTVNGVSIIKVGSTIEEVSTAAEQYLGKETEELKVEAKEVLEGHLRAILSSMTVEDAYSNREQFAQKVHEVASTDLKKMGLRIVSFTIKEIMDKNGYLDALGQPQIATVKRDATIANAEREKEARIEKARAEKEAKEAEYQRDAQIAEAEKHKELKVQSYKREQEQARADADLSYELQQAKAQQGVTEEQMRVKIIEREKQIELEEKEIARREKQYDAEVKKKADADRYAVEQSAEAEKVKQIKKADADQYKIEAEARARAEEVRVEGLAKAEIEKAQGQAKAEVQKAQGTAEADVIRLKGLAEAEAKQKIAEAFELYGQAAIMDMVLKMLPSYAKEVASPLSNIDKITVVDTGGGGKNSGAGKVAGYATDLMATMQETLKASSGIDLKELLEGFAGKGAVQQLSSDKPVVSVVEDKKKEVEKDKE	failed
MSGRYEIRFSGAGGQGLILAGVIMAEAASIYDGKQAVQSQSYGPEARGGASKSEVIISDGPVDYPKATQCDALLALTQEACDKYSADLKEGGVLLVDSDLVTKLPPGNYQTTAFNIINTAKNDVGREIVANIVALGAMVALTGVVSKEAAEKAVLSRVPEAFVELNRKAFQMGFEKALAAKK	failed
MNRNDITILSQQRESVLATNKVLRNTYLLLSLTFIFSALTAYVAFISGARPMNPLLMIVGVYGLMFLTQALRNSVWGLVSVFAFTGFLGYTIGPLLNYYITGFSNGPQIVATALGGTGMIFFALSGYALTTKKDFSYLGGFLFVGVMVALLAMIAGIFIQIPALQLVISAAFVLISSGLILLQTSAIIHEGETNYIMATIGLFVSIYNLFVSLLNLLSAFSGRD	failed
MSNSIFHKIIKSVKGLKLKTDPNLPGAKQKTPLNIKRFYLLIILVIYTATSACIYFDWSAIRKLLLHVGKYKHLNVDEYSDMTLSPQYKRINGLYPLTLAVHFTTSVFCGFLYDHIGPKFTAIIGQLFNIICWILLSIDIKGVDTTLWGFIFLGLGADTAFIPVLTVSNLYPDASTFILTVIGAAASLSYAVPATLNLVLKYFPNLSFSYVCYGYIILILIPCLLTAAFLLPLKPFKALDYYLEKNNETTKHTNAEGRSRSSNNIYTNEEDEFHFKNNASGMVDKDSTENNMNTDEHNYYNNGNISSNDLENNIQTNNRNNNKNNNYNNNNNNNNIIKKNTKISDQSTVKKDKSIDSNKNILHDEEDFHKKSIFLFFKILISYPSVCVITYFILFNISTVFYGMVTDTYFSYDRSIINVINILMPLSSIPCVVFGRFINKYGASVIILTINTLSVLMHLCALIKFRFAGLCSAFLYMCVTSVYTSQIYCFIQNSFPSIVFGKLLGFASLCGGIFSLLCEKLYDLIIIKDSSSIDPTNISLLIVIAFIIMFLPLSILYVRKYERSIENFGEKDKLPMN	failed
DELFNWFYIRSEINSKMSFYIATESDALVSILGFYACDFLIDSRIVPGLWTAMWFTLPQYRNGIGALLMKELVDTNSCSMWPRRIKHEFTNS	failed
MAQPSTTYKFELNLTDLDRNVYESVKQTIARHPSETEERMAVRLLAYALWYNENLSFGRGLSDVDEPALWEKSLDDRVLHWIEVGQPDADRLTWCSRRTERTSLLAYGSLRVWEGKVVSAVKNLKNLSIAAVPQEVLETLATDMPRSIKWDVMISEGTVFVTDDRGQHEVQLQWLLGERG	not failed
MSAPLFSVVVPAYNQHKFIDSCLTSLQRQTLTDFEVFVVDDCSTDDTGEQIAALIKGDDRFHVITHAHNRGVSAARNSGMAAAKGKYLCFVDGDDWVEPDFLATFLAAYRSAPDTQLVVCGHYGYLAVPSPAKTYNQKDLIANINFGTVGGFSWNKAFIRSIITTHHLKFNEDIDFLEDQLFAFRYANYVQSSEYVPDRTYHYRWRFRSNLAHIGIPFFTARRKMMKILKQENKQVLNEDWNNQLEHHHHHH	failed
SLLSVDMEMQIPFHDVDSMGITWHGNYLRYFEIARCKLLDELGYNYRQMQASNYAWPIIDLQIKYVKTSTFEQKITVRAELVEWENRLKINYQIRDVETGARITKGYTIQAAVDMCTQELCFVTPEVFRDKIATLFAKVE	failed
MPSIIEAKHQGQKQSKNELKQARQSVIEQIQDLVPSSTVTHEYDFLFSGFALELPAHQIPSILGIDGVHAVYPNIEYEVETDFDEVVIEKDAYSPEMLDSAPFIGANDAWEAGYTGEGITVAILDTGVDYTHPDLVHAFGDYKGWDFIDNNDDPQETPPGDPRGIETTHGTHVAGTVAANGLIKGVAPDANLLAYRVLGPGGRGSTAGVIAGIERAVQDGADIMNLSLGNTLNDPDFATSIALDWAMAEGVVAVTSNGNSGPNNWTVGSPGTSRDAISVGATRLPYNKYKASVFTSDGIDYPSADIMGFPSDEELLELDGETYEYAFAGLGKPGDFEGVDVEGKIALIVRGEIPFVEKAENAKAAGAVGAIIYNNVAGVQPTVPGLAIPTIMLSNEDGLKMRNELENGQNTVTFSIEFDKLVGETVADFSSRGPVMHTWMIKPDVSAPGVAIVSTIPTHQPDDPYGYGSRQGTSMASPHVAGAAALLLEAHPNWGVDHVKAALMNTAENLVDENGNRYPHNTQGAGSIRIVDAIESETLVTPGSHSFGTFTKERGKQVERQHFTIHNLSNKRKTYQFDVQFAGNPDGIKVKTSKNLRVQPGKTQKINFNVQVDARKLDPGYYEGTIIVSDGSQTVEVPTILFVSEPDYPRVTTFDLDIDENGVLFGSAYLPNGAEEFGLWIYTRDTLEYVTSAAVVQNIGKGYHDVTWDTTELAPGRYYVFAYAERLGKTDFVLGDEIVVKLEHHHHHH	failed
MSPTLSILIPVYKRDCRRLLEELYKQAEELSVGYEIILGDDCSGEPYTSQYIAYEQEGLCRLVSAEENMGAGRLRNRLAEEAQGEQLLILDSDTLPASPDFIERYLRHASGTTVVCGGFVYPPKSTNPLRQRYGAEVESRSAEERARKPHSGFISMAFMIPRKQMLATGFPPNMGMGYEDILFGERLRQAGIPILHIDNPVEHYHCDTAEGFLATTRSYLDNLYCHREELAELVSLLRAYNLLKRLHLMRMVAALWPLIRSSLEKQLTGAKPSLLLFSLYKLLYVASLSLVCAEKS	failed
